Results on 1 substance are retold here after PMC5028900.

For one data set, the target named is GST-MeCP2 AT-hook 2 (UniProt P51608). Description: competition EMSA. To be noted: 0.8 ug poly(dA-dT) against N1 probe; EMSA: 10 mM Tris-HCl pH 7.5, 50 mM KCl, 0.5 mM MgCl2, 0.1 mM EDTA, 0.1 mg/mL BSA, 5% glycerol; 0.5 ng probe in 20 uL; 30 min on ice; native 6% acrylamide gel. Background: A gel shift assay detects complexes by their altered migration in electrophoresis.

For the next data set, the target named is GST-MeCP2 AT-hook 1 (UniProt P51608). The data set is described as follows: competition EMSA. The conditions noted are these: 0.8 ug poly(dA-dT) against N1 probe; EMSA: 10 mM Tris-HCl pH 7.5, 50 mM KCl, 0.5 mM MgCl2, 0.1 mM EDTA, 0.1 mg/mL BSA, 5% glycerol; 0.5 ng probe in 20 uL; 30 min on ice; native 6% acrylamide gel.

Chain of UniProt P51608 (P51608 whole entry): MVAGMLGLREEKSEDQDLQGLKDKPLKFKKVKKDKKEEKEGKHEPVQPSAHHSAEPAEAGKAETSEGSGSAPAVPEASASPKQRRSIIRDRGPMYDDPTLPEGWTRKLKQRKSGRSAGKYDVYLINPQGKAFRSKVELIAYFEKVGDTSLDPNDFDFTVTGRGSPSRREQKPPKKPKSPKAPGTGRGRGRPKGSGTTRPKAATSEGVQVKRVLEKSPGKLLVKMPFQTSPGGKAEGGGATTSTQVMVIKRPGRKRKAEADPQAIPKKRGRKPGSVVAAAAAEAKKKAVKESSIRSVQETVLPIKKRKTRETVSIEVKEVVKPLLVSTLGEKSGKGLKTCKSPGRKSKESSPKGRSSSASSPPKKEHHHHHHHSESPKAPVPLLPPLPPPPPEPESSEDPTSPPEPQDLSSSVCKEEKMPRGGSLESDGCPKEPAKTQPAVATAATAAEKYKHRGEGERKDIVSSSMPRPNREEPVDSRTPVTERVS

Take poly(dA-dT): the binding signal (% of bound probe displaced) in the data set with GST-MeCP2 AT-hook 2 was 20; with GST-MeCP2 AT-hook 1 it was 67.
